Earlier results in article PMC7764831.

Target: p53 (Homo sapiens) (UniProt P04637)
Sequence (P04637 whole entry): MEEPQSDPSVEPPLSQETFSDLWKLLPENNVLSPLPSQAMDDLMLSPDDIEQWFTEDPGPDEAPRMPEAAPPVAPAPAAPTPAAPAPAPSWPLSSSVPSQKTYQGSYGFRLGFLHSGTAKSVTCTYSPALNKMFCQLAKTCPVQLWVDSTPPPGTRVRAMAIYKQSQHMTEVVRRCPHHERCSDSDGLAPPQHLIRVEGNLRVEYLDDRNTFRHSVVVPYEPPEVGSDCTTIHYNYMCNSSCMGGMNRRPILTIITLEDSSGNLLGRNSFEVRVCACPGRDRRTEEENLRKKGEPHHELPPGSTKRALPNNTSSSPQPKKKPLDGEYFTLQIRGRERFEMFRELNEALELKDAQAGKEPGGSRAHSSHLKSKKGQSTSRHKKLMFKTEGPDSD

Chain of Azurin (P00282 21-148): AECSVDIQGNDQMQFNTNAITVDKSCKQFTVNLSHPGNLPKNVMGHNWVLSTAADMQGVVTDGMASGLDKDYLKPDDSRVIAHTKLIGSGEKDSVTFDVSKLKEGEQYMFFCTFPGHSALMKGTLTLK

In the case of Azurin (from UniProt P00282), the Kd is listed as 6 µM.
